One block for each substance: values may come before it.
What was measured:
[1] = target: HVEM expressed on transfected 293 cells; assay: radioligand binding to transfected cells, displacement with unlabelled protein, Scatchard analysis
HVEM-Fc = assay: Biacore; HVEM-Fc amine coupled (~7500 RU), 8nM PRO87299(ECD)-Fc, read 105 seconds after injection
[2] = target: HVEM expressed on transfected 293 cells; assay: radioligand binding to transfected cells, Scatchard analysis
LIGHT expressed on cells = assay: as above
[3] = target: PRO87299/LIGHT expressed together on cells (human); assay: radioligand binding to cells expressing PRO87299 and LIGHT together, Scatchard analysis
PRO87299(ECD)-Fc (human) = assay: Biacore; PRO87299(ECD)-Fc amine coupled (~9000 RU), HVEM injected at 2µg/ml, against the PR04346-Fc control flow cell

Substance: PRO87299(ECD)-Fc (Fc fusion)
- Kd [1]: 25 nM
- response units (HVEM-Fc): 100 RU

- Kd [2]: 2.5 nM
Substance: I-125-LIGHT-FLAG (ligand)

Substance: HVEM-Fc (Fc fusion)
- Kd (LIGHT expressed on cells): 7 nM
- Kd [3]: 0.5 nM

- response units over control (response units) (PRO87299(ECD)-Fc (human)): 1200
Substance: HVEM (protein of the SPDI protein library) (receptor)

Reference: patent EP1812465B1
